Substrate: N[C@H]1CCSC1=O
Experiment: purified protein
Assay type: biochemical, Homo sapiens
Details: Dulbecco's PBS with 0.32 mM DTNB, 37 °C, partially purified native enzyme

B1: human liver BPHL (purified human liver HCTLase) (Homo sapiens) (protein)
chain: SVTSAKVAVNGVQLHYQQTGEGDHAVLLLPGMLGSGETDFGPQLKNLNKKLFTVVAWDPRGYGHSRPPDRDFPADFFERDAKDAVDLMKALKFKKVSLLGWSDGGITALIAAAKYPSYIHKMVIWGANAYVTDEDSMIYEGIRDVSKWSERTRKPLEALYGYDYFARTCEKWVDGIRQFKHLPDGNICRHLLPRVQCPALIVHGEKDPLVPRFHADFIHKHVKGSRLHLMPEGKHNLHLRFADEFNKLAEDFLQ
notes: native, partially purified from pooled human liver (five donors); about 30 kDa by gel filtration; identified by MS, with ACAA1 and hydroxyacyl-CoA dehydrogenase bands co-purifying
  Km: 3.92 mM
